From US20210147534A1 (RECEPTA BIOPHARMA S A, published 2021)
No end group written: not given here.

Biological target: T1, recombinant mouse CD74 (mouse, UniProt P04441 56-279, limits assumed)
T1 construct: Bought (Abcam); also called recombinant CD74
T1 sequence (looked up): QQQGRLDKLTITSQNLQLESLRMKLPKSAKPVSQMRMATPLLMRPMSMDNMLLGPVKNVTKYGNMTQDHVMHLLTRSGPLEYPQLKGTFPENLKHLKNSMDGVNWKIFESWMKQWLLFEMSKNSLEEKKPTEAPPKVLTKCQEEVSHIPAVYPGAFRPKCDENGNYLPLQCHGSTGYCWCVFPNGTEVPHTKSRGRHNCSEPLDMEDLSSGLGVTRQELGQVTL
Assay: chemiluminescent dot-blotting, peptide on nitrocellulose, recombinant CD74 in solution
Experimental: Membranes were washed and incubated with primary mouse anti-CD74 or anti-MIF (both from Abcam, Cambridge, UK), washed and incubated with secondary anti-mouse IgG-HRP. Immunoreactivity was determined using the ECL Western Blotting Substrate (Millipore, Billerica, Mass.), and signal was detected in a trans-illuminator Uvitec, Cambridge, UK).

B1: Rb10A1 (peptide)
peptide: AARGETARATFAYWGQG-NH2
notes: Linear peptide; N-terminal Cys of Rb10 replaced by alanine; also called A1C
**Q.** Does B1 bind?
**A.** Result: no binding
